Results from the supplement of paper PMC9170038.

Tested on: MS2 coat protein
Test: apparent KD of MS2 coat protein; designed switch direction (-1 OFF switch, 1 ON switch): -1; higher = weaker reporter binding
In short: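 Three titration conditions were used: no input, 200 uM small-molecule ligand, and an oligonucleotide input. In each, SNAP-549-labelled MS2 coat protein was raised from 0.7 or 1.5 nM, doubling, to 3 µM over designed RNA switches transcribed on Illumina chips by stalled E. coli RNA polymerase. Curve fits of normalised cluster fluorescence gave values whose per-design median over clusters is the apparent KD.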

[1] = input ligand: microRNA oligo, concentration not stated
[2] = Eterna round: R95, input ligand: microRNA oligo, concentration not stated
[3] = Eterna round: R95, input ligand: FMN 200 uM
[4] = Eterna round: R95, input ligand: none

Sequence	apparent KD of MS2 coat protein (input ligand: FMN 200 uM)	apparent KD of MS2 coat protein [1]	apparent KD of MS2 coat protein (input ligand: none)	apparent KD of MS2 coat protein [2]	apparent KD of MS2 coat protein [3]	apparent KD of MS2 coat protein [4]
UAGCCAUCGUGAGAUGGCUUUCAUACAUGAGGAUCACCCAUGUAGGAUAUCGAUUGCUUUGCAGUCGAGAAGGGCAUGUAUAAU [JL ENG3 3.95] (Eterna round: R96, puzzle: Exclusion NG 3)	34.8 nM	22.8 nM	29.1 nM			
UAGCCCAACUCAUCCUCAUUGAGACAUGAGGAUCACCCAUGUGAGGAUAUUGCGUCGAGAGGACACGAGAAGGCACAAUAGUUU [Eternabot solution 17] (Eterna round: R96, puzzle: Exclusion NG 3)	216 nM	88.1 nM	109 nM			
UAGGGCUGCGGAGGAUAUCCAUAGUGGGCCGGUCGAAGCAUGAGACAUGAGGAUCACCCAUGUCUGGAGAAGGCUGAGCCCUCA [Lequcele] (Eterna round: R96, puzzle: Exclusion NG 2)	20.8 nM	12.1 nM	14.1 nM			
UAGGGUAAGUCAUGUACGAACAUGAGGAUCACCCAUGUAGCUGAAAUAAACCUCGUCCAAAUCUUUCCGUAAAAUGU [Zavein] (Eterna round: R96, puzzle: Sensor v2, turn-off variant)	271 nM	211 nM	295 nM			
UAGGUGUGAGGAUAUGGUAAAGAUAAAAUGAUGAAAGAACUCCAGAAGGCACAUGAGGAUCACCCAUGUAGAUG [Mat - Exclusion 4 - Mod of JL - D33] (puzzle: Exclusion 4)				28.3 nM		
UAGUAUCUGCAGGAUAUCAGUGGAAAACACGUAUGAGAAGGGCAGACAUGAGGAUCACCCAUGUAAAGGGUCCG [BotMod 10 - Jieux - Exclusion 6] (Eterna round: R97, puzzle: Exclusion 6)	541 nM		173 nM			
UAGUGACAUGAGGAUCACCCAUGUGAGGAUAUAGUAGGAGUAAAGAGGAAAGAGAGAACUAGAAGGCACAGUGA [JR_Exclu1_Sub031] (puzzle: Exclusion 1)				48.4 nM	80 nM	51.4 nM
UAGUUGCUCAGGGAGUGUGACAUGAGGAUCACCCAUGUGGUGGUAGGGAACAAGCUUUUUGCACGUACUUAUGAGUU [JR_SV3TOV1_Sub008] (puzzle: Sensor v3, turn-off variant 1)				42.5 nM	150 nM	184 nM
UAUAAAACAUAGGAUAUCGAAUUAAUCAUUUAACGAGAAGGAUGAACAUGAGGAUCACCCAUGUGGUAUCAUGG [Mat - Exclusion 6 - JL Mod - D9] (puzzle: Exclusion 6)				61.5 nM	333 nM	129 nM
UAUAACCGAGGAUAUACAUGAGGAUCACCCAUGUAAUGUAGUAUAAUAUAUGUAAAAUGUAGAAGGUGGGAUGU (Eterna round: R97, puzzle: Exclusion 3)	44.3 nM		54.9 nM			
UAUAACCGAGGAUAUACAUGAGGAUCACCCAUGUAAUGUAGUAUAAUGUAUGUAAGAUGUAGAAGGUGGGAUGU (Eterna round: R97, puzzle: Exclusion 3)	56.2 nM		45.2 nM			
UAUAAGGUAGGAUAUACGAAUAAAUAGGGUAGAAUAAUAACACAUGAGGAUCACCCAUGUAGAAGGACCAAUAU [Mat - Exclusion 2 - Mod of my Tesla design - D28] (puzzle: Exclusion 2)				21.1 nM	39.3 nM	20.3 nM
UAUACACAUGAGGAUCACCCAUGUGAGGAUAUGCGUACGUUGUCCGUAGGCGACGUGCGCAGAAGGCGCAAGGU [Mat - Mod of JL D95] (puzzle: Exclusion 1)				61.4 nM		
UAUACUAGAUAGGAUAUACUUUAUUUUUUUUUCGUAGAAGGAUCUACAUGAGGAUCACCCAUGUUAACAGCAGU [JR_E6_Sub008] (puzzle: Exclusion 6)				55.1 nM		
UAUAUAUAGUAAGGAUAUGUAUAUAUUUUAUCAACAGAAGGUACUGACAUGAGGAUCACCCAUGUUUUAGUGUGGGCAUGUAGA [JMF's solution 71] (Eterna round: R96, puzzle: Exclusion NG 1)		54.2 nM				
UAUAUAUAGUAAGGAUAUGUAUAUAUUUUGUAAACAGAAGGUACUGACAUGAGGAUCACCCAUGUUUUAGUGUGGGCAUGUAGA [JMF's solution 66] (Eterna round: R96, puzzle: Exclusion NG 1)		60.9 nM				
UAUAUGUCAGGAUAUUAGUAGUAAAUAAAUAAAAUUAUUACUGAGAAGGGACAUGAGGAUCACCCAUGUUCCUC [JR_Ex4_Sub001] (Eterna round: R97, puzzle: Exclusion 4)	162 nM		22.9 nM			

Sequence	apparent KD of MS2 coat protein (input ligand: FMN 200 uM)	apparent KD of MS2 coat protein [1]	apparent KD of MS2 coat protein (input ligand: none)	apparent KD of MS2 coat protein [2]	apparent KD of MS2 coat protein [3]	apparent KD of MS2 coat protein [4]
UAUAUGUUAGGAUAUCUCGUCAUGGAGGAAACUCCAUGACGAGAGAAGGAACAUGAGGAUCACCCAUGUUUAUU [Mod of Fisker 25 - Jieux - Exclusion 4] (Eterna round: R97, puzzle: Exclusion 4)	27.4 nM		19 nM			
UAUAUGUUAGGAUAUUAGUAGUAAAUGAAUAAAAUUAUUACUGAGAAGGGACAUGAGGAUCACCCAUGUACCUC [Mat - Exclusion 4 - Eli Mod - D30] (Eterna round: R97, puzzle: Exclusion 4)	19.3 nM		15.9 nM			
UAUCGGGACUGAGGAUAUUCGUUCGAGCACGAAGAAGAAGGUAGUGUCAGGGACAUGAGGAUCACCCAUGUGAUCUCAGUCCCA [JL ViennaUCT Erinle mod 7] (Eterna round: R96, puzzle: Exclusion NG 1)	71.8 nM	60.4 nM	67 nM			
UAUCGGGACUGAGGAUAUUCGUUCGAGCACGAAGAAGAAGGUAGUGUCAGGGACAUGAGGAUCACCCAUGUGAUCUCAGUCUUA [JL ViennaUCT Erinle mod 8] (Eterna round: R96, puzzle: Exclusion NG 1)	127 nM	86.7 nM	98.9 nM			
UAUGGUAAAGUCAGGAUAUACGUACAGAAUUCUAGGUAGAAGGGACAUGAGGAUCACCCAUGUAUGGUAGUGUU [Ex4 #43] (Eterna round: R97, puzzle: Brourd's mod of Exclusion 4)	262 nM		66.9 nM			
UAUGGUUAAGUCAGGAUAUACGUACAGAUAUCUGAGUAGAAGGGACAUGAGGAUCACCCAUGUAUGGUAGUGUU [Ex4 #53] (Eterna round: R97, puzzle: Brourd's mod of Exclusion 4)	187 nM		64.8 nM			
UAUGGUUAAGUCAGGAUAUACGUGCAGUUUUCUGGGUAGAAGGGACAUGAGGAUCACCCAUGUAUGGUAGUGUU [Ex4 #49] (Eterna round: R97, puzzle: Brourd's mod of Exclusion 4)	188 nM		149 nM			
UAUGGUUAAGUCAGGAUAUGCACGAAGAGGUCUAUGCAGAAGGGACAUGAGGAUCACCCAUGUAAAGUCGUGUU [Ex4 #72] (Eterna round: R97, puzzle: Brourd's mod of Exclusion 4)	57.3 nM		36.6 nM			
UAUGGUUAAGUCAGGAUAUGCACGCAGAUUACAAAGCAGAAGGGACAUGAGGAUCACCCAUGUACACUCGUGUU [Ex4 #79] (Eterna round: R97, puzzle: Brourd's mod of Exclusion 4)	25.9 nM		36.1 nM			
UAUGUUGUUGUGAGGAUAUACUUAGUUUGACCGUAGUAGAAGGCACAUGAGGAUCACCCAUGUAGAUGUUUGGU [JR_BME4_Sub005] (puzzle: Brourd's mod of Exclusion 4)				14.9 nM		
UAUGUUUUUGUGAGGAUAUACUUUGUUUGGUCGUAGUAGAAGGCACAUGAGGAUCACCCAUGUAGAUUUUUGGU [JR_BME4_Sub010] (puzzle: Brourd's mod of Exclusion 4)				22.9 nM		
UAUUAAACAAGCAGGUCCCACAUGAGGAUCACCCAUGUGCUCGUCUUAUAACGAUCUGUGGGAAAACCUACGGAUCG [Elimod 18 - Jieux - Sensor, turn-off variant 1] (Eterna round: R97, puzzle: Sensor, turn-off variant 1)	37.7 nM		45.1 nM			
UAUUAACAAGCAAGAUCCUACAUGAGGAUCACCCAUGUGUUCGUCUUAUAAGGUACUGUGACGAAAGUCACGGUACC [Sensor 3, v1 - 75] (puzzle: Sensor v3, turn-off variant 1)				321 nM	76 nM	108 nM
UAUUAACAAGCAUGAUCCCACAUGAGGAUCACCCAUGUGCUCGUCUUAUAAGGUACUGUGACGAAAGUCACGGUACC [Sensor 3, v1 - 85] (puzzle: Sensor v3, turn-off variant 1)				139 nM	132 nM	144 nM
UAUUAACAAGCUUGAUCCCACAUGAGGAUCACCCAUGUGCUCGUCUUAUAAGGUACUGUGACGAAAGUCACGGUACC [Sensor 3, v1 - 86] (puzzle: Sensor v3, turn-off variant 1)				206 nM	89.9 nM	91.2 nM
UAUUAAUGCAAGGAUAUGCUUUUAAUUUUUUUUGCAGAAGGUGCAACAUGAGGAUCACCCAUGUUUCCGGGUAU [JR_E6_Sub032] (puzzle: Exclusion 6)				25.7 nM		
UAUUAGCAAGAAAGAUCCCACAUGAGGAUCACCCAUGUGCUCGUCUUAUAAGGUACUGUGACGAAAGUCACGGUACC [Sensor 3, v1 - 89] (puzzle: Sensor v3, turn-off variant 1)				101 nM	25.3 nM	26.4 nM
